As a reminder, the Kd is the constant that tells how readily two partners part at equilibrium.

These results are taken from patent US20090075291A1 (RESEARCH FOUNDATION OF STATE UNIVERSITY OF NEW YORK, published 2009).

For test [1], the target named is T1, Recombinant Cx43CT (carboxyl terminal domain of rat connexin43, residues 255-382, preceded by GPLG) (rat, UniProt P08050 255-382).
T1 construct: range 255-382; Made in E. coli as a GST fusion (pGEX-6P-2) and cleaved from GST; the protein used was derived from rat cDNA; 15N-labeled for NMR; also called recombinant CT; 15N-Cx43CT
Briefly: SPR, peptide 1.0 mM. For orientation: SPR reads the build-up and loss of mass on a sensor chip optically.

Test [2] addresses T1, Recombinant Cx43CT (carboxyl terminal …). As to the kind of experiment: SPR, Cx43CT immobilized on carboxymethyl dextran. How it is done: Recombinant Cx43CT was covalently bound to a carboxylmethyl dextran matrix (Salamon et al., “Surface Plasmon Resonance Spectroscopy as a Tool for Investigating the Biochemical and Biophysical Properties of Membrane Protein Systems. II: Applications to Biological Systems,” Biochim. Biophys. Acta 1331(2):131-152 (1997), which is hereby incorporated by reference in its entirety). Specific peptides were presented and, when feasible, dissociation constants (KD) were calculated from the time course of binding and unbinding of the ligand, using a 1:1 (Langmuir) association and dissociation kinetic model (Biacore software package). In both phases (association and dissociation), the first 5-8 seconds of recording were not included in the fit, to avoid artifacts resulting from peptide distribution within the flow cells (Lang et al., “Surface Plasmon Resonance as a Method to Study the Kinetics and Amplitude of Protein-protein Binding,” in PRACTICAL METHODS IN CARDIOVASCULAR […] 936-947 (Stefan Dhein, Friedrich Wilhelm Mohr & Mario Delmar eds., 2005), which is hereby incorporated by reference in its entirety).
Phage display allows for the rapid screening of thousands of peptides, but the characteristics of binding cannot be properly defined. Furthermore, the peptides are part of a capsid protein, which may affect the ability of the peptide to properly interact with the target protein. Therefore, some of the peptides identified by the phage screening were selected to, using SPR, further characterize their ability to bind Cx43CT. Recombinant Cx43CT was covalently bound to a carboxymethyl dextran matrix and synthetic peptides presented for binding. A total of six 12-mer peptides from the non-biased screening (peptides labeled RXP1 to RXP6 in Table 1) and 5 peptides from the biased screening (labeled RXP-A to RXP-E in Table 3) were tested. […] Peptide RXP4 (SEQ ID NO:15) caused the largest deflection in SPR signal. RXP4 (250 μM) was added at time “zero.” Washout was initiated after two minutes of exposure.

For test [3], the target named is Cx43 expressed in N2a cells (Cx43 gap junction channels). As to the kind of experiment: cell-based or functional assay.
The target in test [4] is T1, Recombinant Cx43CT (carboxyl terminal …). Briefly: SPR, Cx43CT immobilized, 1:1 Langmuir kinetic fit, pH 6.5 and 7.4. How it is done: A total of six 12-mer peptides from the non-biased screening (peptides labeled RXP1 to RXP6 in Table 1) and 5 peptides from the biased screening (labeled RXP-A to RXP-E in Table 3) were tested. […] Peptide RXP4 (SEQ ID NO:15) caused the largest deflection in SPR signal. RXP4 (250 μM) was added at time “zero.” Washout was initiated after two minutes of exposure. […] Higher concentrations of the peptide were tested but an asymptotic maximum response could not be detected. In addition, dissociation rates were too fast to reliably use them to calculate the kinetics of binding.
A different result emerged from the testing of the doublets. […] In contrast, peptide RXP-E (SEQ ID NO:10) generated a large, concentration-dependent deflection followed by a slow dissociation upon washout, as shown in FIG. 3B. The transitions were well-fit by exponential functions and the rates of association and dissociation were used as described in Example 4 to estimate the kinetic parameters. A full range of concentrations was tested in three separate occasions and at two different pHs of the solvent (6.5 and 7.4). No differences were observed as a function of pH.

Test [5] deals with T2, Cx43 from rat heart lysate (rat, UniProt P08050 2-382).
T2 construct: Native protein pulled down from a tissue lysate; also called cardiac Cx43
Briefly: Cx43 pulldown assay, percent binding relative to RXPE; Example 19 does not state the source of Cx43.

T1 sequence (P08050 other isoform, or with tags, fused parts or gaps limits assumed): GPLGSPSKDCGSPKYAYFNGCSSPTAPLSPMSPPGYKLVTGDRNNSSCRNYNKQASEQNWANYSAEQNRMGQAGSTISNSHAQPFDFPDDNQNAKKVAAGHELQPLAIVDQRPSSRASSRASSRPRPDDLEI
T2 sequence (P08050 2-382 limits assumed): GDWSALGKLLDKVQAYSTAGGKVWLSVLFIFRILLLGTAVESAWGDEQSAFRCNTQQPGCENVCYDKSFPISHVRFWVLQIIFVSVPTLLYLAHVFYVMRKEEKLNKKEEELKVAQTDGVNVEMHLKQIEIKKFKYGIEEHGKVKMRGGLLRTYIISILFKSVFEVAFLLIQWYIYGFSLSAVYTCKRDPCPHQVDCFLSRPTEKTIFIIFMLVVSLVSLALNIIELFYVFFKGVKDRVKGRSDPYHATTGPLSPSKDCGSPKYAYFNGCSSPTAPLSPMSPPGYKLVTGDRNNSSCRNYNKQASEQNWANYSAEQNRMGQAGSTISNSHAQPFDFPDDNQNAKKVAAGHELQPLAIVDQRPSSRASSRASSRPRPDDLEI

Ac-RNPRNP-NH2 [Peptide 2501, AcRNPRNP-NH2]: the “Response Dose” value in test [1] came to 24.8 arbitrary units.

B1: RXP-D (peptide)
peptide: WEEPRRPFTMSGGGSAETHARVPFYSHSPMRHRLPGVHL
notes: Synthetic doublet peptide from the biased phage display screen
Regarding B1, the binding result in test [2] is recorded as “no binding”.
Regarding Ac-RRKPRRKP-NH2 [Peptide 2503, AcRRKPRRKP-NH2], in test [1], the “Response Dose” value turned out to be 295 arbitrary units.

B2: RXP-B (peptide)
peptide: EIQPRSPLMFSGGGSAHARVPFYSHSAKEARWPRAHR
notes: as for B1
Turning to B2, the binding result in test [2] is “no binding”.

B3: RXP-C (peptide)
peptide: GIAAREPNSHDGGGSAHARVPFYSHSRDLWRKPAKSL
notes: as for B1
As to B3, the binding result in test [2] is “no binding”.

B4: RXP-E (peptide)
peptide: SDDLRSPQLHNGGGSAVPFYSHSHMVRRKPRNPR
notes: as for B1
Turning to B4, in test [3], the “junctional conductance (Gj) relative to control at pipette pH 6.2 (acidification-induced uncoupling)” value is 57 % of control and the “junctional conductance (Gj) relative to control during octanol superfusion” value was 57.6 % of control. In addition, in test [4], the dissociation constant (Kd) was determined as 3.9 µM.
With SDDLASAQLHNGGGSAVPFYSHSHMVRRKPANAR (also called RXPE mutant (5,7,31,33pa)) [58], the binding result in test [5] is on record as “no binding”.
Regarding SDDLRSPQLHNGGGSAVPFYSHSHMVRRKPANAR (also called RXPE mutant (31,33A)) [29], the binding result in test [5] is on record as “no binding”.
In the case of SDDLASAQLHNGGGSAVPFYSHSHMVRRKAANPR (also called RXPE mutant (5,7,30,31A)) [31], the binding result in test [5] is “no binding”.

B5: RXP-A (peptide)
peptide: DVPGRDPGYIKGGGSAHARVPFYSHSLNRNRKPSLYQ
notes: as for B1
On to B5, for which the binding result in test [2] is “no binding”.
On to Ac-RRKP-NH2 [Peptide 2504, AcRRKP-NH2], for which the “Response Dose” value in test [1] is 46.5 arbitrary units.
Same read-out and setting: the same measure for Ac-RRNP-NH2 [Peptide 2505, AcRRNP-NH2]: 34.9 arbitrary units.
